# Experimental data reported in IntAct's records for PubMed 27927196.
# B1: Lipopolysaccharide-induced tumor necrosis factor-alpha factor (Homo sapiens), Q99732 (parent)
# chain: MSVPGPYQAATGPSSAPSAPPSYEETVAVNSYYPTPPAPMPGPTTGLVTGPDGKGMNPPSYYTQPAPIPNNNPITVQTVYVQHPITFLDRPIQMCCPSCNKMIVSQLSYNAGALTWLSCGSLCLLGCIAGCCFIPFCVDALQDVDHYCPNCRALLGTYKRL
# Variants of: B1
# Settings: with nedd4_human NEDD4, P46934
# Chain of nedd4_human NEDD4, P46934 (P46934 whole entry): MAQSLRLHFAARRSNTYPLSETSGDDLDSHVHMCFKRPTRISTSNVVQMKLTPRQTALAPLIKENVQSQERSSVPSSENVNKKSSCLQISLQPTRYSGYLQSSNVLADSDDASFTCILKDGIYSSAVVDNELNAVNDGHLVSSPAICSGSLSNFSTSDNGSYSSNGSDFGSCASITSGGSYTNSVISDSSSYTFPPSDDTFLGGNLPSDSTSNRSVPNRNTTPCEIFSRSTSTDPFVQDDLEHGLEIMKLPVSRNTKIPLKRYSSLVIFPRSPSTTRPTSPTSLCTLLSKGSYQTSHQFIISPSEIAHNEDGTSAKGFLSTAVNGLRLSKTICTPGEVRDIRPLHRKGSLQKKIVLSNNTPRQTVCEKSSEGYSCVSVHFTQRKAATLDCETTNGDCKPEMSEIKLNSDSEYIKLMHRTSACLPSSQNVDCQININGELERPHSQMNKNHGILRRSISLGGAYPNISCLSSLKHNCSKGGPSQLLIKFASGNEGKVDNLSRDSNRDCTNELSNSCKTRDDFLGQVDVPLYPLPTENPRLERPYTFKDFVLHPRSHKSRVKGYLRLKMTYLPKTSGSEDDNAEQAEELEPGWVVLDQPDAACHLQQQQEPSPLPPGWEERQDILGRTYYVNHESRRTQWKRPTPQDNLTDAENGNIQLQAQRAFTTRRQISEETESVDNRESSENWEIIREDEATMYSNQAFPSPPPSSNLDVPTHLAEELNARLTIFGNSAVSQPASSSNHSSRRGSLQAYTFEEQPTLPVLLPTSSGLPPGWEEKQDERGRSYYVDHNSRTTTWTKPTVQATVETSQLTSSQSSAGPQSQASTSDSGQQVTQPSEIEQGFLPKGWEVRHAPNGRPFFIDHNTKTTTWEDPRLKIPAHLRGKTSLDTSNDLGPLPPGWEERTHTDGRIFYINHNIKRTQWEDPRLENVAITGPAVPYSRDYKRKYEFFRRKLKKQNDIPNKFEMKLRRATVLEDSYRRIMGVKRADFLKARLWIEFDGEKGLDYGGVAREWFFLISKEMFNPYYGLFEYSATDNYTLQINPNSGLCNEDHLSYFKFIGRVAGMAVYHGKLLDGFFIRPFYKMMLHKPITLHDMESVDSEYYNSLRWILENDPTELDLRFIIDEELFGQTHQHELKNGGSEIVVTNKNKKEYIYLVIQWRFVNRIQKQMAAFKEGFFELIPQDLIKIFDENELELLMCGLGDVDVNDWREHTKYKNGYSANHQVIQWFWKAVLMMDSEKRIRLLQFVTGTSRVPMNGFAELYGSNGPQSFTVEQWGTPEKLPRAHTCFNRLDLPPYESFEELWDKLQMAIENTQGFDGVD
row,Variant,effect of a mutation on the interaction
1,Y23A,disrupting interaction strength
2,Y23A;Y61A,disrupting interaction strength
3,Y61A,with no effect
